The results in this text go back to patent US8822187B1, “Polypeptides, nucleic acid molecules, and methods for synthesis of triterpenes” (University of Kentucky Research Foundation, priority 2011, dated 2014).

A short description of assay [1]: Purified SSL-1 mixed with B. braunii algal cell-free lysate, incorporation of radiolabeled FPP into botryococcene. The format is biochemical, Botryococcus braunii. The conditions noted are these: purified SSL-1 mixed with algal cell-free lysate. The procedure: FIG. 4 depicts the dependence of the squalene synthase-like-1 enzyme on algal lysate for botryococcene biosynthesis. […] The SSL-1 gene containing a 5′ terminal sequence coding for a hexa-histidine tag was over-expressed in E. coli and the corresponding enzyme purified by cobalt affinity chromatography according to the manufacturer (Sigma). B. braunii lysate was prepared from cells collected at the indicated stages of culture development according to the procedure described by Okada, S. et al. (Arch Biochem Biophys 422: 110-118) and 10 μg of lysate protein was used per assay. Assays were incubated at 37° C. for 1 h, then the reaction products extracted with hexane. Aliquots of the hexane extracts was separated by silica TLC and the radioactivity migrating to zones corresponding to authentic standards of botryococcene and squalene determined by scintillation counting. Data represents mean±s.e.m.
Typical enzyme assays were initiated by mixing aliquots of purified enzyme with 50 mM Mops, pH 7.3, 20 mM MgCl2, 2.5 mM 2-mercaptoethanol, 10 μM [1-^3H]-FPP (˜2×10^5 dpm total), and 2 mM NADPH in total reaction volume of 50 μl. Reactions were incubated at 37° C. for 1 h and then extracted with 100 μl n-hexane or 100 ul MTBE. […] The standards were visualized with iodine vapors and TLC zones corresponding to the standards were scrapped and analyzed by scintillation spectrometry. […]

A short description of assay [2]: Substrate specificity of SSL-2 (bisfarnesyl ether formation). The format is biochemical. The conditions noted are these: 37° C., 1 h. The procedure: The radioactivity incorporated in the zones corresponding to bisfarnesyl ether were determined by scintillation counting. Data represents mean±S.E.M.
Assay [3] can be described thus: NADPH oxidation versus squalene and bisfarnesyl ether recovery. The class given is biochemical. The procedure: With reference to Table 2, Assays were performed as described above in the Methods except that an alternative reaction buffer (50 mM Tris pH 8.0, 250 mM NaCl, 20 mM MgCl2) was used to minimize spontaneous NADPH oxidation and prevent protein precipitation at high concentrations. […] An extinction coefficient of 6220/M/cm was used to calculate the amount of NADPH oxidized. No NADPH oxidation could be measured in complete reaction buffer without protein over a 1 h incubation. […] This background NADPH oxidation was subtracted from the experimental determined rates. The experimental enzyme assays contained either purified TSS (0.75 or 1.5 μg) or SSL-2 (8 or 16 μg) and 40 μM ^3H-FPP. Absorbance at […] was recorded every 2.5 min. for 15 minutes, after which the reaction was stopped by adding an equal volume of 0.5 M EDTA. The reaction mixture was collected, extracted with 200 μl of hexane and aliquots were separated by silica TLC along with standards of squalene and bisfarnesyl ether using hexane:MTBE (25:1) as the developing solvent. The standards were subsequently visualized with iodine vapor, and corresponding zones analyzed by scintillation spectroscopy. Data represents mean±S.E.M of duplicate samples.

Where [4] appears, read: 100 μM NADPH, 40 μM 3H-FPP, 15 minutes, 23° C.

B1: Botryococcus braunii race B squalene synthase-like 1 (SSL-1), wild type, hexa-histidine tagged, SEQ ID NO: 2 (Botryococcus braunii) (protein)
chain: MTMHQDHGVMKDLVKHPNEFPYLLQLAATTYGSPAAPIPKEPDRAFCYNTLHTVSKGFPRFVMRLPQELQDPICIFYLLLRALDTVEDDMNLKSETKISLLRVFHEHCSDRNWSMKSDYGIYADLMERFPLVVSVLEKLPPATQQTFRENVKYMGNGMADFIDKQILTVDEYDLYCHYVAGSCGIAVTKVIVQFNLATPEADSYDFSNSLGLLLQKANIITDYNEDINEEPRPRMFWPQEIWGKYAEKLADFNEPENIDTAVKCLNHMVTDAMRHIEPSLKGMVYFTDKTVFRALALLLVTAFGHLSTLYNNPNVFKEKVRQRKGRIARLVMSSRNVPGLFRTCLKLANNFESRCKQETANDPTVAMTIKRLQSIQATCRDGLAKYDTPSGLKSFCAAPTPTK
With B1, in assay [1], the “enhancement of NAD(P)H-dependent botryococcene biosynthesis” value was “up to 10 fold”.

B2: SSL-2: Botryococcus braunii race B squalene synthase-like 2 enzyme; bacterial form is truncated SSL-2-tr2 (protein)
chain: MVKLVEVLQHPDEIVPILQMLHKTYRAKRSYKDPGLAFCYGMLQRVSRSFSVVIQQLPDELRHPICVFYLILRALDTVEDDMNLPNEVKIPLLRTFHEHLFDRSWKLKCGYGPYVDLMENYPLVTDVFLTLSPGAQEVIRDSTRRMGNGMADFIGKDEVHSVAEYDLYCHYVAGLVGSAVAKIFVDSGLEKENLVAEVDLANNMGQFLQKTNVIRDYLEDINEEPAPRMFWPREIWGKYAQELADFKDPANEKAAVQCLNHMVTDALRHCEIGLNVIPLLQNIGILRSCLIPEVMGLRTLTLCYNNPQVFRGVVKMRRGETAKLFMSIYDKRSFYQTYLRLANELEAKCKGEASGDPMVATTLKHVHGIQKSCKAALSSKELLAKSGSALTDDPAIRLLLLVGVVAYFAYAFNLGDVRGEHGVRALGSILDLSQKGLAVASVALLLLVLLARSRLPLLTSASSKQ
As for B2, the Bisfarnesyl ether formed in assay [2] (substrate 10 μM 1-3H-FPP) is 13.5 +/− 3.3 pmoles /h · μg protein. In assay [2] (substrate 10 μM 1-3H-farnesol), this molecule gave a Bisfarnesyl ether formed of 0 pmoles /h · μg protein. The Bisfarnesyl ether formed in assay [2] (substrate 10 μM FPP + 10 μM 1-3H-farnesol) was 16.3 +/− 0.4 pmoles /h · μg protein. Also, in assay [3], the Bisfarnesyl ether formed result was “greater than 21 pmoles”, the “NADPH oxidation not associated with squalene biosynthesis” value is 2.4 pmol, the NADPH oxidized stood at 4.6 pmol and the squalene biosynthesis worked out at 2.2 pmol. In addition, the “bisfarnesyl ether formed per mole equivalent of NADPH oxidation” value in assay [3] (21 pmoles versus 2.4 pmoles) is on record as “about 10 times”. For the same molecule, in assay [3] (setting [4]), the “pmoles bisfarnesyl ether recovered per μg protein” value is 21.7 ± 1.8 pmoles per μg protein and the “pmoles squalene recovered per μg protein” value is reported as 2.2 ± 0.4 pmoles per μg protein. Further, the “pmoles NADPH oxidized per μg protein” value in assay [3] (100 μM NADPH, 40 μM FPP, 15 minutes, 23° C., background subtracted) amounted to 4.6 ± 2.6 pmoles per μg protein. The “NADPH oxidation rate in reaction buffer without FPP (background)” value in assay [3] (without FPP) is given as 22 pmoles/μg protein/h.
